Reference: the supplement of paper PMC12338614
± gives the uncertainty stated by the source.

B1: library; numbered along this chain (parent)
chain: MEVVDPQQLGMFTEGELMSVGMDTFIHRIDSTEVIYQPRRKRAKLIGKYLMGDLLGEGSYGKVKEVLDSETLCRRAVKILKKKKLRRIPNGEANVKKEIQLLRRLRHKNVIQLVDVLYNEEKQKMYMVMEYCVCGMQEMLDSVPEKRFPVCQAHGYFCQLIDGLEYLHSQGIVHKDIKPGNLLLTTGGTLKISDLGVAEALHPFAADDTCRTSQGSPAFQPPEIANGLDTFSGFKVDIWSAGVTLYNITTGLYPFEGDNIYKLFENIGKGSYAIPGDCGPPLSDLLKGMLEYEPAKRFSIRQIRQHSWFRKKHPPAEAPVPIPPSPDTKDRWRSMTVVPYLEDLHGADEDEDLFDIEDDIIYTQDFTVPGQVPEEEASHNGQRRGLPKAVCMNGTEAAQLSTKSRAEGRAPNPARKACSASSKIRRLSACKQQ

Variants of: B1
Assay: STK11 functional score (HeLa growth suppression), rescaled enrichment; synonymous median = 1, nonsense median = 0 (normalised score)
Conditions: with HeLa; variant type: missense
Protocol: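 Deep mutational scan (TileSeq/POPCode codon randomisation) of full-length codon-optimised STK11 cDNA integrated at a Bxb1 landing pad (AAVS1) in HeLa cells. Restoring functional STK11 suppresses HeLa proliferation. Variant frequencies were measured by NGS before and after about two weeks of growth. The error-corrected enrichment log-ratio was rescaled so that synonymous median = 1 and nonsense median = 0, scores above 1 were compressed, and codon-level and three biological replicate scores were combined; error is the bootstrapped standard error. Scale: synonymous median = 1, nonsense median = 0; below 0.5 = damaging.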
For Q159S, the STK11 functional score was 0.691 ± 0.22. For I192M, the STK11 functional score was 1.25 ± 0.61. C278I was tested, and the STK11 functional score was 0.402 ± 0.12. G408W was tested, and the STK11 functional score was 1.48 ± 0.2. In the case of E291L, the STK11 functional score is reported as 0.796 ± 0.14. Work on A414F yielded an STK11 functional score of 1.38 ± 0.14. Variant K122V has an STK11 functional score of 0.86 ± 0.084. K122F was tested, and the STK11 functional score was 1.25 ± 0.21. A397F was tested, and the STK11 functional score was 1.35 ± 0.38. A397N was tested, and the STK11 functional score was 0.679 ± 0.15. Variant I360S has an STK11 functional score of 1.11 ± 0.38. S378Y showed an STK11 functional score of 1.35 ± 0.35. Work on L263I yielded an STK11 functional score of 1.57 ± 0.28. M129N showed an STK11 functional score of 0.571 ± 0.13. A429D was tested, and the STK11 functional score was 1.52 ± 0.12. With L285G the STK11 functional score was -0.0815 ± 0.1. Variant L285E has an STK11 functional score of -0.0678 ± 0.11. Work on L55F yielded an STK11 functional score of -0.181 ± 0.15. G394N was tested, and the STK11 functional score was 0.969 ± 0.76. Variant G394L has an STK11 functional score of 1.59 ± 0.25. For L290S, the STK11 functional score was 0.0143 ± 0.1. L290Q showed an STK11 functional score of -0.237 ± 0.2. Work on C210T yielded an STK11 functional score of 1.35 ± 0.19. Variant R74A has an STK11 functional score of 0.0507 ± 0.14. N266E gave an STK11 functional score of 0.101 ± 0.94. Work on N266C yielded an STK11 functional score of 0.945 ± 0.51. Variant S404I has an STK11 functional score of 1.22 ± 0.13. Variant S404V has an STK11 functional score of 1.53 ± 0.27. R415C gave an STK11 functional score of 1.25 ± 0.14. S271R was tested, and the STK11 functional score was 1.04 ± 0.27. In the case of H154L, the STK11 functional score is reported as 0.189 ± 0.086. For K262R, the STK11 functional score was 1.18 ± 0.47. In the case of C151P, the STK11 functional score is reported as 0.45 ± 0.22. Variant C151Y has an STK11 functional score of 1.45 ± 0.41. C151Q gave an STK11 functional score of 1.54 ± 0.39. With R333L the STK11 functional score was 1.32 ± 0.35. Work on L72R yielded an STK11 functional score of 0.386 ± 0.11. Work on K403W yielded an STK11 functional score of 1.54 ± 0.27. Work on K403I yielded an STK11 functional score of 1.04 ± 0.46. Work on E374I yielded an STK11 functional score of 1.46 ± 0.25. In the case of E374K, the STK11 functional score is reported as 1.47 ± 0.53. Work on D237E yielded an STK11 functional score of 0.97 ± 0.53. Variant E165L has an STK11 functional score of 0.448 ± 0.22. I303S was tested, and the STK11 functional score was -0.209 ± 0.085. For L164F, the STK11 functional score was -0.208 ± 0.089. Work on Y118L yielded an STK11 functional score of 0.633 ± 0.1. N109M was tested, and the STK11 functional score was 0.647 ± 0.075. P144N showed an STK11 functional score of 1.53 ± 0.23. For P144K, the STK11 functional score was 1.63 ± 0.2. Variant L17R has an STK11 functional score of 1.22 ± 0.26. L17A was tested, and the STK11 functional score was 1.68 ± 0.37. In the case of L17S, the STK11 functional score is reported as 1.35 ± 0.55. With N247W the STK11 functional score was 0.698 ± 0.082. N247T showed an STK11 functional score of 0.951 ± 0.094. V197C showed an STK11 functional score of 1.55 ± 0.22. Work on A377P yielded an STK11 functional score of 1.4 ± 0.38. Work on I300M yielded an STK11 functional score of 0.944 ± 0.21. For I300P, the STK11 functional score was 1.42 ± 0.13. I300C was tested, and the STK11 functional score was 0.803 ± 0.36. With C391A the STK11 functional score was 1.51 ± 0.22. Variant L195R has an STK11 functional score of 0.0408 ± 0.11. For L195G, the STK11 functional score was 0.969 ± 0.22. Work on I248R yielded an STK11 functional score of -0.248 ± 0.13. Work on I248H yielded an STK11 functional score of -0.139 ± 0.09. For I248G, the STK11 functional score was 0.0645 ± 0.096. L386W was tested, and the STK11 functional score was 1.13 ± 0.25. Variant H168P has an STK11 functional score of 0.0717 ± 0.12. Work on H168C yielded an STK11 functional score of 0.168 ± 0.32. Variant D141M has an STK11 functional score of 1.22 ± 0.14. With V150C the STK11 functional score was 0.762 ± 0.23. Work on C132Q yielded an STK11 functional score of 1.58 ± 0.14. C132A gave an STK11 functional score of 1.47 ± 0.32. C132T showed an STK11 functional score of 1.52 ± 0.24. G135F showed an STK11 functional score of 1.09 ± 0.08. V114D gave an STK11 functional score of 1.17 ± 0.27. P280F was tested, and the STK11 functional score was 1 ± 0.18. H379E was tested, and the STK11 functional score was 0.586 ± 0.27. Y131I gave an STK11 functional score of 1.2 ± 0.3. With E199N the STK11 functional score was 1.54 ± 0.19. With D176I the STK11 functional score was -0.156 ± 0.11. Work on I224R yielded an STK11 functional score of 1.04 ± 0.17. For I224N, the STK11 functional score was 1.47 ± 0.42. S216L was tested, and the STK11 functional score was 0.0797 ± 0.09. E376W gave an STK11 functional score of 0.781 ± 0.22. E376F gave an STK11 functional score of 1.35 ± 0.37. R104F showed an STK11 functional score of 1.19 ± 0.3. For R104L, the STK11 functional score was 1.4 ± 0.2. For R104K, the STK11 functional score was 1.31 ± 0.67. With K269R the STK11 functional score was 1.22 ± 0.28. P323F showed an STK11 functional score of 1.36 ± 0.33. For P323G, the STK11 functional score was 1.13 ± 0.11. With C73G the STK11 functional score was 1 ± 0.2. C73P gave an STK11 functional score of 0.227 ± 0.098. In the case of P6Y, the STK11 functional score is reported as 1.67 ± 0.12. In the case of L400I, the STK11 functional score is reported as 1.55 ± 0.28. Work on L400V yielded an STK11 functional score of 1.41 ± 0.26. Variant R405F has an STK11 functional score of 1.59 ± 0.27. R405I was tested, and the STK11 functional score was 1.6 ± 0.22. P411K showed an STK11 functional score of 1.57 ± 0.35. D359W gave an STK11 functional score of 1.07 ± 0.22. S213M was tested, and the STK11 functional score was 1.15 ± 0.12. With D208N the STK11 functional score was 1.4 ± 0.22. H27D showed an STK11 functional score of 1.22 ± 0.62. Variant H27S has an STK11 functional score of 0.805 ± 0.23. For L190F, the STK11 functional score was 0.343 ± 0.17. Q399G showed an STK11 functional score of 1.51 ± 0.28. Variant E407F has an STK11 functional score of 1.26 ± 0.58. R384A gave an STK11 functional score of 1.33 ± 0.24. Work on R384F yielded an STK11 functional score of 1.55 ± 0.1. For K423Y, the STK11 functional score was 1.41 ± 0.29. K423L showed an STK11 functional score of 1.45 ± 0.52. Work on K423W yielded an STK11 functional score of 1.49 ± 0.15. Variant P203S has an STK11 functional score of 1.68 ± 0.46. T402D gave an STK11 functional score of 1.21 ± 0.39. In the case of I161C, the STK11 functional score is reported as 1.03 ± 0.48. For P413V, the STK11 functional score was 1.4 ± 0.24. D365P gave an STK11 functional score of 1.56 ± 0.18. In the case of S59E, the STK11 functional score is reported as 1.42 ± 0.18. For H345Y, the STK11 functional score was 1.12 ± 0.3. P149G showed an STK11 functional score of 0.926 ± 0.23. Variant L80V has an STK11 functional score of 0.484 ± 0.079. Variant M335Q has an STK11 functional score of 1.01 ± 0.25. In the case of K191S, the STK11 functional score is reported as 1.17 ± 0.19. For P321H, the STK11 functional score was 1.21 ± 0.32. P321S showed an STK11 functional score of 1.42 ± 0.13. I99T was tested, and the STK11 functional score was 1.45 ± 0.43. I99D was tested, and the STK11 functional score was 0.335 ± 0.1. Work on V143T yielded an STK11 functional score of 1.59 ± 0.19. V173L was tested, and the STK11 functional score was 0.137 ± 0.13. For V173Q, the STK11 functional score was 1.46 ± 0.14. For R310C, the STK11 functional score was 1.06 ± 0.17. For T250V, the STK11 functional score was 1.24 ± 0.14. Work on E265T yielded an STK11 functional score of 1.56 ± 0.25. For N412F, the STK11 functional score was 1.23 ± 0.15. Variant E33M has an STK11 functional score of 1.44 ± 0.2. Variant E33W has an STK11 functional score of 0.795 ± 0.09. Variant E33V has an STK11 functional score of 0.509 ± 0.087. G288D was tested, and the STK11 functional score was -0.347 ± 0.084. With Y362T the STK11 functional score was 1.6 ± 0.14. Y362F showed an STK11 functional score of 1.05 ± 0.12. R301G showed an STK11 functional score of 1.48 ± 0.25. For K64L, the STK11 functional score was 1.54 ± 0.26. In the case of S193I, the STK11 functional score is reported as 1.17 ± 0.54. E317Q was tested, and the STK11 functional score was 1.2 ± 0.4. K97W was tested, and the STK11 functional score was 0.46 ± 0.082. K78H was tested, and the STK11 functional score was -0.114 ± 0.081. With K78Y the STK11 functional score was -0.374 ± 0.076. In the case of K78L, the STK11 functional score is reported as 0.107 ± 0.12. In the case of I172N, the STK11 functional score is reported as 0.174 ± 0.13. Variant E2Q has an STK11 functional score of 1.21 ± 0.54. In the case of E98H, the STK11 functional score is reported as 0.617 ± 0.08. For E120N, the STK11 functional score was 1.68 ± 0.39. Work on E120H yielded an STK11 functional score of 1.66 ± 0.17. In the case of Q371M, the STK11 functional score is reported as 1.46 ± 0.33. Variant G171C has an STK11 functional score of 0.479 ± 0.091. Work on G171A yielded an STK11 functional score of 1.18 ± 0.4. Variant V128F has an STK11 functional score of 1.13 ± 0.21. E357P was tested, and the STK11 functional score was 1.58 ± 0.14. G270D gave an STK11 functional score of 1.52 ± 0.2. Work on G270E yielded an STK11 functional score of 1.42 ± 0.72. For P222W, the STK11 functional score was 0.686 ± 0.36. Variant F298Y has an STK11 functional score of 0.754 ± 0.77. F298D was tested, and the STK11 functional score was 1.48 ± 0.12. In the case of Y246F, the STK11 functional score is reported as 0.678 ± 0.097. Y246H gave an STK11 functional score of -0.136 ± 0.1. In the case of D162H, the STK11 functional score is reported as 0.6 ± 0.53. D162C showed an STK11 functional score of 1.28 ± 0.15.
